Data taken from publication doi:10.1101/2024.10.04.616694.
Read-outs that look alike come from different tables or passages of the source.

Experiments:
Test in all cases: AUC
EGFP (Aequorea victoria) [1] = target: EGFP (Aequorea victoria)
EGFP (Aequorea victoria) [2] = target: EGFP (Aequorea victoria); remark: listed apart in the source
EYFP (Aequorea victoria) [3] = target: EYFP (Aequorea victoria)
EYFP (Aequorea victoria) [4] = target: EYFP (Aequorea victoria); remark: listed apart in the source

Substance | stoichiometry N (EGFP (Aequorea victoria) [1]) | stoichiometry N (EGFP (Aequorea victoria) [2]) | stoichiometry N (EYFP (Aequorea victoria) [3]) | stoichiometry N (EYFP (Aequorea victoria) [4])
EGFP | 2 | 2 |  | 
EYFP |  |  | 2 | 2
